In US20250230251A1:

Biological target: extracellular matrix (ECM) proteins
Assay: ECM (Matrigel) ELISA, 1 µM antibody

Row | ECM score | Substance
1 | 1.1 | low control mAb (antibody)
2 | 24.2 | high control mAb (antibody)
